Measurements taken from the supplement of paper PMC10567573.

B1: TAF7L (parent)
chain: PDVENEVKRLLRSDAEAVSTRWEV
B2: CCND2 (parent)
chain: YFKCVQKDIQPYMRRMVATWMLEV

Variants of: B1
Assay: protein stability index of a GFP-peptide fusion (GPS, HEK-293T) (PSI 1-6); higher = more stable
Details: c terminus: a fixed tail appended
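Further: lentivirally expressed fusions sorted by FACS into six bins by GFP to DsRed ratio, PSI derived from sequencing read proportions per bin multiplied by bin number.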

Protein stability index, by site and new letter:
L10: H 3.82, K 3.8, Q 3.25, T 4.36, W 2.86
L11: A 4.29, C 3.25, D 4.9, E 5.07, K 4.37, M 3.14, N 4.79, P 4.74, Q 4.35, R 4.2, S 3.53, T 4.11
R12: A 3.5, C 2.99, D 4, E 4.54, F 2.88, H 4.38, K 4.19, N 3.87, P 4.61, S 3.75, V 2.96, W 2.33, Y 3.96
S13: D 4.14, E 4.19, F 1.9, G 3.02, H 2.53, I 3.29, K 3.76, M 3.54, N 3.53, P 4.71, Q 2.09, Y 2.87
D14: A 1.97, H 3.25, L 1.77, M 3.06, N 2.75, P 2.13, R 2.38, S 2.26, T 2.12, W 1.48, Y 1.45
A15: D 4.09, E 4.36, F 2.57, G 3.97, H 3.88, L 3.58, N 3.54, P 3.19, Q 3.46, R 2.99, S 3.22, T 1.9, V 3.02, W 2.93, Y 3.51
E16: C 2.01, D 3.74, F 2.27, H 2.9, I 2.08, K 2.65, L 2.73, M 1.71, P 3.18, Q 3.22, R 2.12, S 3.17, T 2.77, Y 1.46
A17: C 3.54, F 2.64, G 3.69, N 3.61, P 3.28, S 3.93, T 2.71, V 3.35
V18: E 4.54, F 2.31, G 4.29, K 2.9, M 4.78, P 3.31, Q 3.9, T 3.83, W 2.22, Y 3.37
S19: F 2.73, G 3.54, H 3.18, I 3.03, M 2.48, P 3.75, Y 2.08
T20: A 4.18, D 2.76, E 3.99, F 2.74, H 2.22, I 2.12, K 3.85, L 2.29, M 2.26, N 3.28, P 2.15, Q 3.34, R 3.29, S 3.32, V 2.39, Y 2.43
R21: A 3.19, C 2.61, D 5.01, E 5.41, F 2.53, G 4.36, H 3.58, I 2.96, K 3.76, L 2.86, M 3.61, N 4.93, P 3.87, Q 4.18, S 2.95, T 3.06, V 3.2, Y 2.51
W22: A 5.26, C 3.63, D 5.66, E 5.52, F 3.83, G 5.31, H 4.79, I 4.49, L 4.8, N 5.45, P 4.92, Q 5.11, R 4.92, T 5.07, V 4.21
E23: A 3.52, C 2.83, G 3.86, H 3.56, I 2.59, K 3.59, L 2.29, M 2.4, P 3.2, Q 2.68, R 2.75, S 2.53, T 2.96, Y 2.56
V24: A 4.61, C 4.15, D 4.24, E 4.13, G 4.61, M 4.29, N 5.33, P 4.63, R 4.36, T 4.31, Y 3.51

Variants of: B2
Assay: as above
Details: c terminus: a fixed tail appended

Protein stability index of substitutions, site by site:
Y1: A 3.09, C 1.94, D 2.58, E 1.88, F 2.3, H 3.71, I 2.47, K 3.54, L 2.14, M 2.11, N 2.23, P 1.71, Q 3.55, R 1.87, S 2.85, T 2.37, V 3.34, W 2.82
F2: A 2.97, C 2.61, D 2.15, E 4.07, G 3.84, I 2.9, K 2.95, L 2.85, M 1.89, N 2.66, Q 3.63, R 2.33, S 3.5, T 2.61, V 2.15, W 2.75, Y 2.68
K3: A 2.64, C 2.89, D 3.48, E 3.31, G 1.86, H 3.13, I 2.78, L 2.71, M 2.96, N 2.9, P 2.33, Q 2.12, S 3.75, T 3.31, V 3.12, W 2.44, Y 3.04
C4: A 2.47, E 1.28, F 4.64, G 2.21, H 2.37, I 2.84, K 2.45, M 2.81, N 3.42, P 2.44, Q 1.44, R 2.25, S 3.14, T 1.74, V 3.69, W 3.23, Y 3.12
V5: A 2.25, C 2.36, D 2.41, E 2.58, F 2.7, G 1.47, H 2.23, I 2.92, K 2.25, L 2.71, M 2.48, N 2.54, P 3.14, Q 2.37, R 4.02, S 1.43, T 3.62, W 2.9, Y 4
Q6: A 1.97, C 3.44, D 2.65, E 3.62, F 2.07, G 2.47, I 1.91, K 3.15, L 2.53, N 1.9, P 2.49, R 2.65, S 2.37, T 2.38, V 1.79, W 1.64, Y 2.64
K7: D 1.91, E 4.8, F 1.98, G 2.97, H 4.29, I 3.33, L 2.56, M 2.53, N 2.66, P 2.48, Q 2.1, R 2.69, S 3.21, T 3.22, V 3.05, W 2.12, Y 2.54
D8: C 2.87, E 2.37, G 3.98, H 2.21, I 2.58, K 2.94, L 2.05, N 2.16, P 3.13, S 3.28, T 2.37, W 2.03, Y 3.53
I9: C 2.51, D 2.71, E 3.71, F 2.47, G 3.25, H 2.78, K 1.52, L 3.16, M 3.79, P 3.18, Q 2.61, R 1.77, S 3.49, T 3.39, V 1.06, Y 3.57
Q10: A 3.8, C 3.12
